{"source": "paper PMC7708082", "target": "translesion synthesis (TLS) polymerase ι (human (endogenous in K562)) (UniProt Q9UNA4)", "sequence (Q9UNA4 whole entry)": "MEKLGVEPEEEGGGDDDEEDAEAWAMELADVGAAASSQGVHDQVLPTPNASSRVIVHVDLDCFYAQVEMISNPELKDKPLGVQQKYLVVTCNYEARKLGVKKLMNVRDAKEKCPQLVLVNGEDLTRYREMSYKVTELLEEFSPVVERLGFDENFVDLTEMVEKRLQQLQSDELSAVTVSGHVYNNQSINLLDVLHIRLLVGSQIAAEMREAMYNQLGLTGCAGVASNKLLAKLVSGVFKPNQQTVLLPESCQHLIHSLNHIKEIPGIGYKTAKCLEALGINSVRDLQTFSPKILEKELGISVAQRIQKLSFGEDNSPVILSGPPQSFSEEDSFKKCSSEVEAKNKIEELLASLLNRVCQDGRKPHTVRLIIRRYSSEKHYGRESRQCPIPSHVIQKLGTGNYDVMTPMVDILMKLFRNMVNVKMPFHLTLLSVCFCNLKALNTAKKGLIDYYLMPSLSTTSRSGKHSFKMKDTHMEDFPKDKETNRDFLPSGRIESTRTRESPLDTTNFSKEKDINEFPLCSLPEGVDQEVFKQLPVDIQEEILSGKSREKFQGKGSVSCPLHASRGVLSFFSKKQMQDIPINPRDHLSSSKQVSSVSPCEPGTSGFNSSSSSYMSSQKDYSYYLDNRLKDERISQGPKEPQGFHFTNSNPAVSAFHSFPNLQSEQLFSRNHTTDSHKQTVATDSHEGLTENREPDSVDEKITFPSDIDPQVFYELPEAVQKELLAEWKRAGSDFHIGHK", "experiment": "proximity ligation", "data": [{"substance": "p53(22Q/23S) (from UniProt P04637 1-393) (natural protein)", "values": [{"measurement": "reduction in PLA-foci numbers against p53(WT)", "result": 64, "unit": "%"}]}]}
